# US20260085129A1 (ECO ANIMAL HEALTH, published 2026)
# B1: Clone 39-H17B11 VHH antibody (VHH)
# VHH: QVQLVESGGGLVQAGGSLRLSCAASGRTFSSYAMGWFRQTPGKDREFVARIGWTGGTTIYADSVKGRFTISRDNAKNTVYLQMNSLKPEDTAVYYCAADQAGWRTAGVRNTYEYDYWGQGTQVTVSS
# notes: Llama single domain antibody; also called clone 17B11; not shown: tags: c-myc tag on the soluble VHH in periplasmic extracts; FLAG and His tags on the purified VHH
# Biological target: T1, pCD163-SRCR-FL-PST2-His (porcine, UniProt Q2VL90 51-1044)
# T1 construct: also called pCD163-1-PST2-His; pCD163-SRCR1-PST2; not shown: His tag
# T1 sequence: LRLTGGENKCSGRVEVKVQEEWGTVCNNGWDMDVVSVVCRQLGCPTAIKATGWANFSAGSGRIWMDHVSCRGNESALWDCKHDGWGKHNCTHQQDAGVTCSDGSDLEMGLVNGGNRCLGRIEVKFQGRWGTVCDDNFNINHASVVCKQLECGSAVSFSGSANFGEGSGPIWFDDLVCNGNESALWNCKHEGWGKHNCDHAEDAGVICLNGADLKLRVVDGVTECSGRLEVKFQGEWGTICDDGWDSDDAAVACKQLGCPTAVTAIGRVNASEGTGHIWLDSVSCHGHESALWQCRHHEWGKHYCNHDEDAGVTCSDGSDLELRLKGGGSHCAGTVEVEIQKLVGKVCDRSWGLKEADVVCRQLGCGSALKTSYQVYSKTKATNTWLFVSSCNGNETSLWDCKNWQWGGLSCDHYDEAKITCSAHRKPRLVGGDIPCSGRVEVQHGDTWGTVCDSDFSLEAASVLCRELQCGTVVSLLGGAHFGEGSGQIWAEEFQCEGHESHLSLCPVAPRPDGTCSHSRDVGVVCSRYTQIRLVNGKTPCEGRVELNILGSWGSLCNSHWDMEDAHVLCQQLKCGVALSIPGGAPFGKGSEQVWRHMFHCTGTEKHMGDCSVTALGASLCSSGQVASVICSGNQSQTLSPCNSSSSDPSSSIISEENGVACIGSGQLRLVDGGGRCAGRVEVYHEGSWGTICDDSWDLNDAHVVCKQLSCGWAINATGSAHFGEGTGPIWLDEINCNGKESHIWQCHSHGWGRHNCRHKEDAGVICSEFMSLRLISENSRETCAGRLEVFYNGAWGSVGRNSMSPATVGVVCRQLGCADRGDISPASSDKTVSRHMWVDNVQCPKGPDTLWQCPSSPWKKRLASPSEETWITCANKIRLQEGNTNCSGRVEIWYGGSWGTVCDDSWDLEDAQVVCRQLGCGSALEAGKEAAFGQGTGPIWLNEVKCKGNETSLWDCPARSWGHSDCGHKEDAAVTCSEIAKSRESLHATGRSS
# Assay: Biacore 3000 SPR, antigen amine-coupled on CM5 chip, VHH 200-12.5 nM, pH 7.4, 1:1 binding with mass transfer
# Experimental: Surface plasmon resonance (SPR) (Biacore 3000, GE Healthcare) was used to determine the binding kinetics of selected single domain antibodies at pH7.4. Approximately 2075 to 2423 RUs of pCD163-SRCR1-9-huFc or 2859 to 3286 RUs of pCD163-1-PST2-His. respectively, at 20 or 30 μg/ml in Acetate buffer pH 5.0 or pH 5.5 were immobilized onto a CM5 chip using the standard amine coupling procedure.
# 1×HBS-EP pH 7.4, was utilized as a running buffer during binding kinetic measurements. Purified VHH were injected at 2-fold dilution from 200 nM down to 12.5 nM in HBS-EP pH 7.4, at 30 μl/min for 2 minutes, followed by an off-rate wash for 1 min between injections. Off-rate wash was 300s after the last concentration injection in each cycle. RU levels were restored to base levels after regeneration with two injections of 10 μl of 1 M NaCl, 1 mM Glycine pH 1.5 between samples.
# Fitting 1:1 binding with mass transfer was applied to the set of sample curves using the simultaneous fitting option of the BIAevaluation software to calculate the kinetic constants of the antibody-antigen interactions including association rate (ka), dissociation rate (kd) and affinity (KD). Curves were removed from the fitting after visual examination of the residuals and considering the value of Chi2: a minimum of 4 curves were considered for the simultaneous fitting.
binder,measurement,value
B1,Kd,255 µM
same,koff,0.281 s⁻¹
same,kon,1100 M⁻¹ s⁻¹
